Test results: patent US12312417B2, “Binding proteins 1” (Nucleus Therapeutics Pty. Ltd., priority 2017, dated 2025)

How the values were obtained:
[1] = system: DLD1 colon cancer cells; test: Alkaline phosphatase-based survey of nuclear penetration; type: cell-based; details: cells treated for one hour; right shift of histogram peak
Description: DLD1 colon cancer cells were treated with control media or each of the indicated variants for one hour. Cells were then washed, fixed, blocked with 1% BSA-TBST, and then probed with protein L for one hour. Cells were then washed and incubated with an anti-protein L primary antibody for one hour. After another round of washing cells were incubated with an alkaline phosphatase-conjugated secondary antibody for one hour. Finally, cells were washed and signal was developed by addition of NBT/BCIP. Dark stain indicates location of the variants.
Raw integrated density values reflecting nuclear alkaline phosphatase staining in the DLD1 cells from the experiment in FIG. 3 were obtained by analysis using ImageJ Boxplots of distributions of values are presented for each variant in FIG. 4.
Histogram plots of cell counts versus nuclear staining intensity (represented as reciprocal intensity in arbitrary units) are shown in FIG. 5.

[2] = system: PTEN-deficient U251 human glioma cells; test: Phospho-53BP1 foci accumulation (DNA damage); type: cell-based; details: for mean number of phospho-53BP1 foci per cell: PTEN-deficient U251
Description: A matched pair of PTEN-proficient and deficient U251 human glioma cells were treated with control media or media containing Variant 10, 11, 13, 15, or 16 for twenty-four hours. Cells were then washed, fixed, blocked, and then probed with an anti-phospho-53BP1 antibody overnight. Cells were then washed and incubated with an AlexaFluor555-conjugated secondary antibody. Finally, cells were washed, counterstained with DAPI, and visualized under a fluorescence microscope. Images were saved and evaluated by CellProfiler to determine mean number of phospho-53BP1 foci per cell.
(§1) A matched pair of BRCA2-proficient and deficient DLD1 colon cancer cells and PTEN-proficient and deficient U251 human glioma cells were treated with control media or media containing 10 μM di-scFv variant 13 (SEQ ID NO: 41), 5 nM olaparib, or combination treatment.

[3] = system: PTEN-deficient U87 human glioma cells; test: Cell viability by Trypan blue exclusion assay; type: cell-based; details: 7 days after treatment; relative to control treated cells
Description: Cell viability of PTEN-deficient U87 human glioma cells was also assessed following treatment with control media or media containing Variants 10, 13, 15, or 16. Cell viability was determined 7 days after treatment using Trypan blue exclusion assay and by direct visualization of cell morphology by light microscopy.

[4] = system: BRCA2-deficient DLD1 colon cancer cells; test: Cell viability by Trypan blue exclusion assay; type: cell-based; details: 7 days later
Description: (§2) Next, a matched pair of BRCA2-proficient and deficient DLD1 colon cancer cells was treated with control media or media containing Variants 10, 13, 15, or 16. Cell viability was determined 7 days later by Trypan blue exclusion assay and by direct visualization of cell morphology by light microscopy. […] Representative light microscope images shown the changes in morphology in the BRCA2-deficient cancer cells treated with the variants are shown in FIG. 10, Panel A. Quantitative analysis of the cell survival by Trypan blue exclusion assay is shown in FIG. 10, Panel B.

[5] = system: BRCA2-proficient DLD1 colon cancer cells; test: Cell viability by Trypan blue exclusion assay; type: cell-based; details: 7 days later
Description: as §2

[6] = system: DLD-1 cells; test: Nuclear penetration by protein L immunostain of fixed cells; type: cell-based
Description: (§3) DLD-1 and MCF-7 cells were treated with control or di-scFv (SEQ ID NO: 41), and nuclear penetration was evaluated by protein L immunostain of fixed cells.

[7] = system: MCF-7 cells; test: as above; type: cell-based
Description: as §3

[8] = system: HDR-proficient DLD1 cells; test: Cell death in HDR-proficient cells, di-scFv with PARP inhibitor; type: cell-based; details: 5 nM olaparib, 10 μM di-scFv, or both
Description: Homology-directed repair (HDR) deficient BRCA2-DLD1 cells and PTEN-U251 cells were treated with control, 5 nM olaparib, 10 μM di-scFv, or 10 μM di-scFv+5 nM olaparib. Surviving fraction was determined by colony formation assay.
It was then determined whether the combination of di-scFv and olaparib is simply universally cytotoxic, regardless of DNA repair status. To evaluate this possibility, HDR-proficient DLD1 cells were treated with the above regimen to confirm selectivity of combination therapy to HDR-deficient malignant cells.

[9] = system: Primary human glioblastoma (GBM) cancer cells; test: Live cells by trypan blue staining in primary GBM explants; type: cell-based; details: seven patient explants; percentage of live cells by trypan blue
Description: Primary human glioblastoma (GBM) cancer cells extracted from primary human GBM tumours from patients were treated with control or di-scFv (SEQ ID NO: 41), and percentage of live cells was evaluated by trypan blue staining.

[10] = system: human GBM cancer stem cells (CSCs) grown as tumour spheres; test: GBM tumour sphere penetration and sphere volume; type: cell-based
Description: GBM cancer stem cells extracted from primary human GBM tumours from patients and grown as spheres were treated with control or di-scFv (SEQ ID NO: 41), and the effect of dose and incubation time on reduction of sphere volume was evaluated by confocal micrographs of DX1-rhodamine cellular penetration into GBM cells. Tumour spheres are recognised as a useful tool for pre-clinical studies as they retain tumour heterogeneity and more closely represent the original patient tumour.

[11] = system: GBM cells extracted from human GBM tumours; test: Orthotopic mouse model of GBM; type: in vivo
Description: An orthotopic mouse model of GBM was generated by intracranial injection of GBM cells extracted from human GBM tumours. Once the tumours developed in the brain, mice were treated by tail vein injection of control or di-scFv variant 13 (SEQ ID NO: 41), and effect of di-scFv on reduction of tumour volume was evaluated by extraction of tumours. […] To confirm this, tumours and normal brain were probed for di-scFv by protein L immunostaining.
Mean survival data reflected these trends (83 days±3.2 days for di-scFv treated mice, 71 days±1.2 days for controls) (FIG. 16E). Statistical analysis indicated a significant difference between the two groups, with P value=0.004.

[12] = system: BRCA2-deficient DLD1 colon cancer cells; test: Phospho-53BP1 foci accumulation; type: cell-based
Description: as §1

B1: Variant 13: cell penetrating anti-DNA humanized di-scFv, SEQ ID NO: 41 (protein)
scFv: DIQMTQSPSSLSASLGDRATITCRASKTVSTSSYSYMHWYQQKPGQPPKLLIKYASYLESGVPSRFSGSGSGTDFTLTISSLQPEDAATYYCQHSREFPWTFGGGTKVEIKRADAAPGGGGSGGGGSGGGGSEVQLVESGGGLVQPGGSLRLSCAASGFTFSNYGMHWVRQAPGKGLEWVSYISSGSSTIYYADSVKGRFTISRDNAKNSLYLQMNSLRAEDTAVYYCARRGLLLDYWGQGTTVTVSSASTKGPSVFPLAPLESSGSDIQMTQSPSSLSASLGDRATITCRASKTVSTSSYSYMHWYQQKPGQPPKLLIKYASYLESGVPSRFSGSGSGTDFTLTISSLQPEDAATYYCQHSREFPWTFGGGTKVEIKRADAAPGGGGSGGGGSGGGGSEVQLVESGGGLVQPGGSLRLSCAASGFTFSNYGMHWVRQAPGKGLEWVSYISSGSSTIYYADSVKGRFTISRDNAKNSLYLQMNSLRAEDTAVYYCARRGLLLDYWGQGTTVTVSS
modifications: Variant 13
nuclear penetration relative to the yeast prototype (histogram of cell counts versus nuclear staining intensity) [1]: notable right shift and narrowing of distributions
percentage of P53BP1-positive cells ([2]; HDR-deficient U251, 24 hour): increased
mean number of phospho-53BP1 foci per cell ([2]; 10 μM di-scFv, 5 nM olaparib): increased the number of phospho-53BP1 foci
mean number of phospho-53BP1 foci per cell ([2]; twenty-four hours, vs control media): increased the number of foci
cell viability [3]: reductions in cell viability
cell viability / toxicity [4]: killed by the variants
cell viability / toxicity [5]: not toxic
nuclear penetration [6]: successfully penetrated
nuclear penetration [7]: successfully penetrated
cell death [8]: No effect on cell death
glioblastoma tumour explants showing significant cancer cell death [9]: Five of the seven
cellular penetration in GBM spheres ([10]; confocal micrographs, DX1-rhodamine): demonstrated cellular penetration in GBM spheres
sphere volume ([10]; effect of dose and incubation time): reduced sphere volume in dose-dependent and time-dependant manner
median survival ([11]; group of 7 mice): 87 days
median survival longer than controls ([11]; group of 7 mice, controls median 72 days): more than 20%
crossing of the blood brain barrier ([11]; mouse, in vivo): successfully crossed the blood brain barrier
di-scFv in GBM tumour cells by protein L immunostaining ([11]; mouse, in vivo): detected in the nuclei of GBM tumour cells
di-scFv in adjacent normal brain cells by protein L immunostaining ([11]; mouse, in vivo): not evident
toxicity or weight loss ([11]; survival study mice): No toxicity or weight loss
TUNEL staining (incidence of apoptosis in tumours) ([11]; tail vein injection): increased incidence of apoptosis
glioblastoma tumour size smaller than in control mice ([11]; tail vein injection, brain sections): more than 40%
mean number of phospho-53BP1 foci per cell ([12]; BRCA2-deficient DLD1, 10 μM di-scFv, 5 nM olaparib): increased the number of phospho-53BP1 foci
percentage of P53BP1-positive cells ([12]; HDR-deficient DLD1, 24 hour): increased
